The text below walks through data of patent US20240342284A1 (ARSENAL BIOSCIENCES, published 2024).

For assay [1], the target named is T1, human Prostate-Specific Membrane Antigen (PSMA) expressed on cells (human, UniProt Q04609 1-750).
T1 construct: also called FOLH1; HEK293T-PSMA
The assay can be described thus: flow cytometry, 8-point serial dilution on HEK293T-PSMA cells, anti-mouse IgG2a-PE secondary, gMFI. The protocol: (§1) PSMA expressing HEK293T cell lines were used to assess the binding of recombinant antibodies to cell surface expressed PSMA. Briefly, HEK293T parental and HEK293T-PSMA engineered cells were first blocked with human Fc blocker for 10 min at room temperature, stained for 30 min on ice with recombinant antibodies in an 8-point serial dilution, and washed 3 times with BD Stain Buffer. Subsequently, cells were stained for 30 min on ice with anti-mouse IgG2a-PE secondary antibody. Cell surface binding was measured on an Attune flow cytometer, with geometric mean fluorescence intensity (gMFI) data analyzed in FlowJo and plotted using GraphPad Prism. The dose-response curves and EC50 value were analyzed and obtained using the nonlinear fit model of (agonist) versus response (three parameters).
(§2) There was no binding to parental HEK293T cells.

The target in another assay is T2, recombinant mouse PSMA (mouse, UniProt O35409 45-752, limits assumed).
T2 construct: also called mouse homolog of PSMA
The assay can be described thus: BLI (Octet R8), antibody on anti-mouse capture biosensors, recombinant antigen as analyte. The protocol: (§3) The binding affinity of recombinant CA9 antibodies to human CA9 target antigen and cross-reactivity to mouse homologs was measured on the Octet R8. Briefly, recombinant antibody was loaded onto anti-mouse capture (AMC) Octet biosensors. Biosensors were then dipped into different concentrations of recombinant target antigen (analyte) solution, and the rate of protein-protein complex formation (association) measured. Protein-protein dissociation rates were measured when the biosensors were dipped into kinetic buffer alone. The Octet Analysis Studio 13.0 software calculated the response in equilibrium (Req) using the association and dissociation signal. The KD value and other kinetics parameters were determined by the values of Req for each analyte concentration (Table 1).
(§4) The binding affinity of recombinant antibodies to human PSMA target antigen and cross-reactivity to mouse homologs was measured on the Octet R8 instrument. […] Biosensors were then dipped into different concentrations of recombinant target antigen (analyte) solution, and the rate of protein-protein complex formation (association) measured. Protein-protein dissociation rates were measured when the biosensors were dipped into kinetic buffer alone. The Octet Analysis Studio 13.0 software calculated the response in equilibrium (Req) using the association and dissociation signal. […]
(In general: BLI is a label-free optical method that tracks binding on a fibre tip over time.)

Assay [2] addresses T3, mouse PSMA expressed on HEK293T cells (mouse, UniProt O35409 1-752).
T3 construct: whole, on cells; also called HEK293T-mPSMA; mPSMA
Briefly: flow cytometry histograms on HEK293T-mPSMA cells (panel B, left), axis PSMA 1 ab MFI. The protocol: Cross-reactivity of PSMA 1 to mouse PSMA was evaluated using flow cytometry. In brief, HEK293T cells expressing mouse PSMA (HEK293T-mPSMA) were stained for 30 min on ice with increasing concentrations of PSMA 1-mIgG2a. Target cells were also stained with positive control antibodies to confirm expression of mouse PSMA on the engineered HEK293T cells. Following primary staining, the cells were washed, stained with secondary antibody, and subsequently analyzed by flow cytometry. Data were analyzed using FlowJo.
(In general: A flow cytometer gives signals particle by particle.)

The target in another assay is T4, recombinant human PSMA (human, UniProt Q04609 44-750).
T4 construct: Soluble recombinant antigen used as analyte on the Octet
Briefly: BLI (Octet R8), antibody on anti-mouse capture biosensors, recombinant human PSMA as analyte. The protocol:
as §3, with “recombinant” for “recombinant CA9”, “PSMA” for “CA9”, “R8 instrument.” for “R8.”, “2).” for “1).”

Assay [3] deals with T1, human Prostate-Specific Membrane …. Briefly: flow cytometry dose curves on HEK293T-PSMA against parental cells (data not shown). The protocol:
as §1
Binding of PSMA 1-mIgG2a or PSMA 2-mIgG2a to PSMA was assessed by cell binding dose curves on parental HEK293T cells and HEK293T-PSMA expressing cell lines. […] (data not shown)

For assay [4], the target named is T5, human CA9 isoform with Q326R SNP, expressed on HEK293T cells (human, UniProt Q16790 38-459).
T5 construct: also called CA9-Q326R; Q326R CA9
The assay can be described thus: flow cytometry histograms on the snpQ326R CA9 HEK293T line, secondary mouse anti human IgG2 stain.

In assay [5] the target is T6, human CA9 isoform with 91-96 deletion, expressed on HEK293T cells (human, UniProt Q16790 38-459).
T6 construct: also called CA9-91-96del; 91-96del CA9
The assay can be described thus: flow cytometry histograms on the 91-96del CA9 HEK293T line, secondary mouse anti human IgG2 stain.

In assay [6] the target is T7, human Carbonic Anhydrase IX (CA9) expressed on cells (human, UniProt Q16790 38-459). The assay can be described thus: flow cytometry histograms on the wt line 293T-LP81-CA9(CL572), secondary mouse anti human IgG2 stain.
A further assay concerns the target T8, recombinant mouse CA9 (mouse, UniProt Q8VHB5 32-390, limits assumed).
T8 construct: also called mouse homolog of CA9
Briefly: BLI (Octet R8), antibody on anti-mouse capture biosensors, recombinant antigen as analyte. The protocol:
as §3, §4

For assay [7], the target named is T9, mouse CA9 expressed on HEK293T cells (mouse, UniProt Q8VHB5 32-437).
T9 construct: whole, on cells; also called HEK293T-mCA9; mCA9
The assay can be described thus: flow cytometry histograms on HEK293T-mCA9 cells (panel B, left), axis CA9 1 ab MFI. The source says:
To assess cross-reactivity of CA9 1 to mouse CA9 and further confirm the binding kinetics to human CA9, HEK293T-mCA9 cells were stained with increasing concentrations of CA9 1-mIgG2a then analyzed by flow cytometry. Recombinant CA9 1-mIgG2a protein was titrated against parental and engineered HEK293T cell lines expressing mouse CA9. Target cells were also stained with positive control antibodies to confirm expression of mouse CA9 on the engineered HEK293T cells. Following primary staining, the cells were washed, stained with secondary antibody, and subsequently analyzed by flow cytometry. Data were analyzed using FlowJo. Target cells were also stained using an anti-mouse CA9 positive control antibody to confirm expression of mouse CA9 on the HEK293T-mCA9 cells.

Another assay concerns the target recombinant human CA9 (human, UniProt Q16790 38-414). The assay can be described thus: BLI (Octet R8), antibody on anti-mouse capture biosensors, recombinant human CA9 as analyte. The protocol:
as §3

Assay [8] deals with T7, human Carbonic Anhydrase IX (CA9) …. Briefly: flow cytometry, 8-point serial dilution on HEK293T-CA9 cells, anti-mouse IgG2a-PE secondary, gMFI. The protocol: (§5) Binding of recombinant CA9 1-mIgG2a and CA9 2-mIgG2a to CA9 was assessed by cell binding dose curves on parental HEK293T cells and HEK293T-CA9 expressing cell lines. Briefly, HEK293T parental and HEK293T-CA9 engineered cells were first blocked with human Fc blocker for 10 min at room temperature, stained for 30 min on ice with recombinant antibodies in an 8-point serial dilution, and washed 3 times with BD Stain Buffer. Subsequently, cells were stained for 30 min on ice with anti-mouse IgG2a-PE secondary antibody. Cell surface binding was measured on an Attune flow cytometer, with geometric mean fluorescence intensity (gMFI) data analyzed in FlowJo and plotted using GraphPad Prism. The dose-response curves and EC50 value were analyzed and obtained using the nonlinear fit model of (agonist) versus response (three parameters).
as §2

For assay [9] the target is unchanged. Briefly: flow cytometry on HEK293T-CA9 against parental cells (data not shown). The protocol: as §5

T4 sequence (Q04609 44-750 limits assumed): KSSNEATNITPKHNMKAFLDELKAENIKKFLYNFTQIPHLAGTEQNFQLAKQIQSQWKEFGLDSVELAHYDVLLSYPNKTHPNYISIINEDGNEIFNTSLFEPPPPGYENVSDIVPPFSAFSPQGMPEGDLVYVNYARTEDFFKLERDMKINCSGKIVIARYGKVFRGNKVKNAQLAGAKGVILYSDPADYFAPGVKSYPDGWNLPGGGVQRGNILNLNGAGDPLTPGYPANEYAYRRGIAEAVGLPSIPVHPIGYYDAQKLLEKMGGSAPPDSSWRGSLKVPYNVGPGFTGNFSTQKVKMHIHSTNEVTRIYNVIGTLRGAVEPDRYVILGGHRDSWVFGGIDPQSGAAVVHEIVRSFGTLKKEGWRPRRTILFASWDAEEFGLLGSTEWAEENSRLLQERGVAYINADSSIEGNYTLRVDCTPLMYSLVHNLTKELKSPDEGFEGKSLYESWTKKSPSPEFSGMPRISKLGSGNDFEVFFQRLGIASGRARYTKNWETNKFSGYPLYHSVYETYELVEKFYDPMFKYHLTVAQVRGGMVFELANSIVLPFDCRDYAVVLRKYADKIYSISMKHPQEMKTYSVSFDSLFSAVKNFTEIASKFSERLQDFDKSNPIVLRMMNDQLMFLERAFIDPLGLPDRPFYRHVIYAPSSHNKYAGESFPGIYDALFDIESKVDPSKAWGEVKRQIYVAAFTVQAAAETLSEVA
T1 sequence (Q04609 whole entry): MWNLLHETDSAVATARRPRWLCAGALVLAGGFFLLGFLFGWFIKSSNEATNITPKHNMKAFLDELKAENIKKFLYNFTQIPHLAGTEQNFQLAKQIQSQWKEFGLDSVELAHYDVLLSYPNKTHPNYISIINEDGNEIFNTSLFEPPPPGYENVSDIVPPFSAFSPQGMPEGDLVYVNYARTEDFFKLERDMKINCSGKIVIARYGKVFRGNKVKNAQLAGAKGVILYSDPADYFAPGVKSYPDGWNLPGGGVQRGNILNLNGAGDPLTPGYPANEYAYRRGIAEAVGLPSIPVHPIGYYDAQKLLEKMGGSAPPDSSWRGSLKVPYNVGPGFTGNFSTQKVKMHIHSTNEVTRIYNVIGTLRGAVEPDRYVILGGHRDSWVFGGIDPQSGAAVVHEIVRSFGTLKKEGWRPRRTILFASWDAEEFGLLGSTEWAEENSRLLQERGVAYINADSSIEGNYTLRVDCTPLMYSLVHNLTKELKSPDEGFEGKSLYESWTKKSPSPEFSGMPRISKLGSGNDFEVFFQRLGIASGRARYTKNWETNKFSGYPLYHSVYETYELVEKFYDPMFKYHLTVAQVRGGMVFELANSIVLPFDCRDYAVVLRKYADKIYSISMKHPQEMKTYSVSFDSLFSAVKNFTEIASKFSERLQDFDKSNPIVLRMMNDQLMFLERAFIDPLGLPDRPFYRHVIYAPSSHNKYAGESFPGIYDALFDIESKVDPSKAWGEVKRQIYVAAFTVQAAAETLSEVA
T9 sequence (Q8VHB5 32-437): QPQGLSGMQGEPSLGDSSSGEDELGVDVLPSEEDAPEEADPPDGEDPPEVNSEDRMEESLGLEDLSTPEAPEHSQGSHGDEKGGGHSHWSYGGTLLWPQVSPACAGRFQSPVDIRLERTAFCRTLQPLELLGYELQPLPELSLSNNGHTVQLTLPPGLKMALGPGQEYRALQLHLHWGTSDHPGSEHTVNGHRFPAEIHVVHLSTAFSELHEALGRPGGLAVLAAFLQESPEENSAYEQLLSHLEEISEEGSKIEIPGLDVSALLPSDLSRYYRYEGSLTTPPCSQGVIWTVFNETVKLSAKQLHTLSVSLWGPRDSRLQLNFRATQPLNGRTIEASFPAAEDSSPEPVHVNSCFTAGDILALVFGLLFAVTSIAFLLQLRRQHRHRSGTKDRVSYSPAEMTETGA
T8 sequence (Q8VHB5 32-390 limits assumed): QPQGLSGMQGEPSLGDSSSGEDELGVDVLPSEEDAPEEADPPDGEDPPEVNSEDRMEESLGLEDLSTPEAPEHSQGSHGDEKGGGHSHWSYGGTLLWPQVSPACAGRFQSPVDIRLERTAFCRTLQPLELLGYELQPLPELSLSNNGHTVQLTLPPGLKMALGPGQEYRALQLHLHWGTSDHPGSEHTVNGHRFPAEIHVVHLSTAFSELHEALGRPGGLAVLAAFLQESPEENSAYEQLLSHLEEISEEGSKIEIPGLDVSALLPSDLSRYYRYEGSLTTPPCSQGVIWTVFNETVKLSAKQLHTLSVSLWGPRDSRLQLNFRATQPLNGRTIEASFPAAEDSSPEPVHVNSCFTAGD
T2 sequence (O35409 45-752 limits assumed): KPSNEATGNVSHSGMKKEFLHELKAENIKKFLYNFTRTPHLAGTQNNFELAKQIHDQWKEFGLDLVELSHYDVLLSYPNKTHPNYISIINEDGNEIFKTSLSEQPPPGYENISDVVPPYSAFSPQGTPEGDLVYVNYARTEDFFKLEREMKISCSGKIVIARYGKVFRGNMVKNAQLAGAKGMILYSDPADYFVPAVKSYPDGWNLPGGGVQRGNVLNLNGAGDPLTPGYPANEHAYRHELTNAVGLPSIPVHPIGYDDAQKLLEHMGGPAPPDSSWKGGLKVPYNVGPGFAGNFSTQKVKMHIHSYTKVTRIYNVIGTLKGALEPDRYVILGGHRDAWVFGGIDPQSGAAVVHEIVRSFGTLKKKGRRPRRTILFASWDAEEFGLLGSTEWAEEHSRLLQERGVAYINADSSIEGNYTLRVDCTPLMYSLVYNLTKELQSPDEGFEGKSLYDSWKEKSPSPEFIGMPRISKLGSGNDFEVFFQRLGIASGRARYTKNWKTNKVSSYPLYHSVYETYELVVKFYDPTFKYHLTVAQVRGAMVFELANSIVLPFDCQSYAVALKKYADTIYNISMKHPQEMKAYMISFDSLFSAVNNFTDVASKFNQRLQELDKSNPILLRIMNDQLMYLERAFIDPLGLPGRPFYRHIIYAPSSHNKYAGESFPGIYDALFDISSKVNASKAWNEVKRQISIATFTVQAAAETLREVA
T3 sequence (O35409 whole entry): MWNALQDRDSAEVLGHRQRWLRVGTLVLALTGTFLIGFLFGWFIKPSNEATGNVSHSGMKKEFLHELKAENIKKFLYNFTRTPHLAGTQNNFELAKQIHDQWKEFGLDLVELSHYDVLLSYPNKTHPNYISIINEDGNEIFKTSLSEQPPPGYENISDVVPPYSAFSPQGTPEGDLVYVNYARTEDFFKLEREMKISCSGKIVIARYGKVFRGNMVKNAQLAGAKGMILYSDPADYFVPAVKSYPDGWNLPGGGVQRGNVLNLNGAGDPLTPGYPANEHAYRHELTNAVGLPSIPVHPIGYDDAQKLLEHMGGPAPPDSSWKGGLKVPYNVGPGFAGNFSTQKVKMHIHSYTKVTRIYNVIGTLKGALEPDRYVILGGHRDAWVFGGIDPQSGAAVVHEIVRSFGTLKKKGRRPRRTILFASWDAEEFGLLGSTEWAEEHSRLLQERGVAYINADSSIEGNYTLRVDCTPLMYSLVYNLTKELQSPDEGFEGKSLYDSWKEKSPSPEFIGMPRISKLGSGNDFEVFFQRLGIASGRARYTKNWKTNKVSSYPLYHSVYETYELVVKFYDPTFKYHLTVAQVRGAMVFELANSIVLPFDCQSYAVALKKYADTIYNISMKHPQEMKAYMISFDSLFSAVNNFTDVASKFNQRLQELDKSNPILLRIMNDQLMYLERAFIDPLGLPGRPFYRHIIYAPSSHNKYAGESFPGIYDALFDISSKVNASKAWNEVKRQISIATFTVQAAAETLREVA

B1: PSMA 1-mIgG2a (antibody, V domains shown)
VH: QVQLVQSGPEVKKPGASVKVSCKASGYTFTSYGITWVRQAPGQGLEWMGWISEYNGNTNYAQKFQGRVTMTIDTSTTTAYMELRSLRSDDTAVYFCARGGILPYYFFYYMDVWGKGTTVTVSS
VL: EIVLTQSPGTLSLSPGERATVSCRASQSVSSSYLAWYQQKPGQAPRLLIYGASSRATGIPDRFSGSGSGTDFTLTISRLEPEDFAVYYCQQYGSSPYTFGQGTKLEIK
notes: Fully human VH and VL cloned into vectors with mouse IgG2a constant domains (chimeric, expressed in CHO); also called PSMA 1 antigen biding fragment
The molecule B1 gave an EC50 in assay [1] of 1860 pM. For the same molecule, the binding result in the assay with recombinant mouse PSMA is recorded as “no binding”. Further, the binding result in [2] is listed as “no binding (tested: 30 µg/mL)”. Further, in the assay with recombinant human PSMA, the Kd is 300 pM, the koff was 1.89e-05 s⁻¹ and the kon came to 63300 M⁻¹ s⁻¹.

B2: PSMA 2-mIgG2a (antibody, V domains shown)
VH: QVQLVQSGAEVKKPGASVKVSCKASGYTFSSYGVSWVRQAPGQGLEWMGWISKYNGNTNYAQKFQGRVTMTTDTSTSTAYMELRSLRSDDTAVYFCARGGIHGDSYYFYYLDVWGKGTTVTVSS
VL: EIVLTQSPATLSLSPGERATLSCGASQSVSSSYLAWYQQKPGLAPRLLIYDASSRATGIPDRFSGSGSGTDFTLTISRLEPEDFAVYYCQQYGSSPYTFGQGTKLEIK
notes: Fully human VH and VL cloned into vectors with mouse IgG2a constant domains (chimeric, expressed in CHO)
Turning to B2, the binding result in assay [3] was “binds”.

B3: CA9 1 scFv (scFv)
scFv: QVQLVQSGAEVKKPGASVKVSCKASGYTFTSYYMHWVRQAPGQGLEWMGIINPSRGSASYAQKFQGRVTMARDTSTSTVYMELSSLRSEDTAVYYCARDRNYYYYMDVWGKGTTVTVSSGGGGSGGGGSGGGGSEIVMTQSPATLSVSPGERATLSCRASQNISSNLAWYQQKPGQAPRLLIYGASTRATDIPARFSGSGSGTEFTLTISSLQSEDFAVYYCQQYITWYTFGQGTKLEIK
notes: Used to stain the CA9 isoform cell lines; It was detected with a secondary 'mouse anti human IgG2' stain
B3: the binding result in assay [4], in assay [5] and in assay [6] was “binds” each time.

B4: CA9 1-mIgG2a (antibody, V domains shown)
VH: QVQLVQSGAEVKKPGASVKVSCKASGYTFTSYYMHWVRQAPGQGLEWMGIINPSRGSASYAQKFQGRVTMARDTSTSTVYMELSSLRSEDTAVYYCARDRNYYYYMDVWGKGTTVTVSS
VL: EIVMTQSPATLSVSPGERATLSCRASQNISSNLAWYQQKPGQAPRLLIYGASTRATDIPARFSGSGSGTEFTLTISSLQSEDFAVYYCQQYITWYTFGQGTKLEIK
notes: Fully human VH and VL cloned into mammalian expression vectors with mouse IgG2a constant domains (chimeric antibody, expressed in CHO); also called CA9 1 antigen biding fragment
Take B4: the binding result with recombinant mouse CA9 is recorded as “no binding”. In addition, the binding result in assay [7] is “no binding (tested: 30 µg/mL)”. In the assay with recombinant human CA9, the Kd worked out at 150 pM, the koff stood at 4.9e-05 s⁻¹ and the kon is 325000 M⁻¹ s⁻¹. In assay [8], this molecule showed an EC50 of 920 pM.

B5: CA9 2 scFv (as printed; CA9 2 is a VH-only single domain) (VHH)
VHH: EVQLVESGGGLVQPGGSLRLSCAASGFSFSDYSGMSWVRQAPGKGEELVSAISPGGGDTYYADSVKGRFTISRDNSKNTLYLQMNSLRAEDTAVYYCARRWWYYSNHSGDYDYFDYRGQGTLVTVSS
notes: It was detected with a secondary 'mouse anti human IgG2' stain
For the molecule B5, the binding result in assay [4], in assay [5] and in assay [6] was “binds” each time.

B6: CA9 2-mIgG2a (antibody, V domains shown)
VH: B5 VHH
For the molecule B6, in assay [9], the binding result was “binds”.

One may read the EC50 as the concentration giving half of the maximal effect. A low value points to higher potency in that assay. As a reminder, the Kd is the concentration at which binding is half-saturated. Broadly, the koff is the first-order rate constant of dissociation. Broadly, the kon is the second-order rate constant of association.
